Entries after “also recorded” stand apart in the source; their conditions may differ.
B1: APIT: FAD-binding L-amino acid oxidase from Aplysia punctata, SEQ ID NO. 1 (protein, listed as Aplysia punctata)
chain: MDGVSRNRRQCNREVCGSTYDVAVVGAGPGGANSAYMLRDSGLDIAVFEYSDRVGGRLFTYQLPNTPDVNLEIGGMRFIEGAMHRLWRVISELGLTPKVFKEGFGKEGRQRFYLRGQSLTKKQVKSGDVPYDLSPEEKENQGNLVEYYLEKLTGLQLNGEPLKREVALKLTVPDGRFLYDLSFDEAMDLVASPEGKEFTRDTHVFTGEVTLDASAVSLFDDHLGEDYYGSEIYTLKEGLSSVPQGLLQAFLDAADSNEFYPNSHLKALRRKTNGQYVLYFEPTTSKDGQTTINYLEPLQVVCAQRVILAMPVYALNQLDWNQLRNDRATQAYAAVRPIPASKVFMTFDQPWWLENERKSWVTKSDALFSQMYDWQKSEASGDYILIASYADGLKAQYLRELKNQGEDIPGSDPGYNQVTEPLKDTILDHLTEAYGVERDSIPEPVTAASQFWTDYPFGCGWITWRAGFHFDDVISTMRRPSLKDEVYVVGADYSWGLISSWIEGALETSENVINDYFL
modifications: FAD cofactor

Experiments:
NIH3T3 cells spheroids = assay: Spheroid formation of NIH3T3 cells, propidium iodide staining; format: cell-based, murine; conditions: 24 hours
Experimental: In this example, immortalized murine fibroblast NIH3T3 cells were specifically chosen for generating spheroids due to their ability to produce a consistently uniform, rounded, and tightly cohesive structure. […] To achieve this, NIH3T3 cells (150,000 cells/mL) were seeded on non-tissue culture treated petri dish coverslips in 10 μL drops. Subsequently, they were treated with camptothecin and compound 4, the latter being activated both with and without H2O2, and were incubated upside down for 24 hours at 37° C. under 5% CO2. Following the incubation period, the spheroids were stained with propidium iodide (0.003 μg per 10,000 cells) for 3 minutes at room temperature. The analysis of these spheroids was conducted using an Axio Observer.Z1 microscope equipped with an A-Plan 10×/0.25 Ph1 objective (Zeiss). The images were recorded with a phase-contrast channel, and a 43 DsRed Reflector (λex=538-562 nm λem=570-640 nm) with a mercury vapor short-arc lamp.

HER2-positive tumor = assay: Tumor targeting and biodistribution in mice with HER2-positive and HER2-negative tumor; format: in vivo; conditions: six hours after exposure, NIR-labelled protein
Experimental: Tumor targeting and biodistribution of (A) zHER2-APIT-NIR and (B) APIT-NIR in mice with HER2-negative tumor (black) and HER2-positive tumor (gray); (whiskers indicate 10-90% percentile values, line in the box is the median; significance was tested with the Mann-Whitney U test, *p<0.05 was considered statistically different; n.s.=not significant; n=6).
Labelling of 1 eq protein was performed with either 6 eq of AlexaFluor680™-maleimide (NIR) or 10 eq of TexasRed-maleimide in PBS containing 50 mM TCEP pH 7.4 at a protein concentration of 1.0 mg/mL overnight. Reaction mixture was purified via HiTrap Q HP using 50 mM Tris pH 8.0 (A) and 50 mM Tris 1 M NaCl pH 8.0 (B) with following method: 30% B for 45 CV, 30-100% B in 30 CV. The eluent was dialyzed in PBS. The degree of label (DOL) was determined according to the manufacturer's instructions using extinctions coefficient of 1.539 mLmg-1 cm-1 for APIT.

ROS (H2O2) production = assay: Enzymatic activity, production of ROS (H2O2), spectrofluorimetric experimental setup; format: biochemical; conditions: for enzymatically active: fusion protein; for enzymatic activity, production of ROS (H2O2): spectrofluorimetric experimental setup
Source text: The proteins APIT, the fusion protein zHER2:342-APIT and zHER2:342(K4R/K7A/K27R/K49R/K50A/K58A)-APIT were successfully recombinantly produced and purified. The proteins were verified for identity and purity by mass spectrometry and high-performance liquid chromatography (HPLC) (see FIGS. 3 and 4). Subsequently, both proteins were compared with respect to their enzymatic activity, in particular the production of ROS (H2O2) via a spectrofluorimetric experimental setup. The activity of both species is very similar: • APIT: 80 U/mg, • zHER2:342-APIT: 70 U/mg, • zHER2:342(K4R/K7A/K27R/K49R/K50A/K58A)-APIT: 70 U/mg.

[1] = target: T1, HER2 receptor on HER2-positive cells (BT474 cell line) (Homo sapiens, UniProt P04626); assay: Cell-based HER-2 binding assay on fixed HER2-positive cells; conditions: fluorescent dye labeled protein
T1 construct: host or cells: BT-474 (HER2-positive breast cancer cell line), fixed with 4% paraformaldehyde
Source text: (§1) Shown are results of cell culture experiments to confirm the selective HER2 binding of the fusion proteins. The fusion proteins zHER2:342-APIT and zHER2:342(K4R/K7A/K27R/K49R/K50A/K58A)-APIT were labeled with fluorescent dye and probed for HER2 binding on fixed cells. Cell nuclei were stained with Hoechst33342.
Left panels: HER2-positive cells (BT474 cell line). Here, the fluorescent dye labeled fusion proteins bind to the HER2 receptor located on the cell membrane.
(§2) HER2 positive BT-474 (ACC 64), adherent cells were cultured in RPMI 1640 containing 20% (v/v) FBS, MEM non-essential amino acids, 1 mM Pyruvate, 10 μg/ml human insulin. HER2-negative MDA-MB-231 (ACC 732) adherent cells were cultured in Leibowitz' L15, 20% FBS. Cells were cultured from frozen stocks and passaged two times prior to the assay. Cells were incubated at 37° C., 5% CO2 humidified. At a confluency of 80% cell passaging was performed by trypsination using 0.25% (w/v) trypsin/0.2% (w/v) EDTA. Cells were seeded at 10 k cells/well on sterilized degreased 4%-gelatin coated cover slides ([…]) in 24-well plates and grown over night in the incubator. Cells were washed with PBS and fixated with freshly made 4% (w/v) paraformaldehyde solution for 30 min. […] Fluorescence signal was imaged using a ZEISS motorized Axio ZI observer fluorescence microscope. Images were analyzed and processed using Zeiss Zen Pro software.

[2] = test system: HER2-negative cells (MDA-MB-231); assay: Cell-based HER-2 binding assay on fixed HER2-negative cells (negative control); conditions: MDA-MB-231, fixed cells, fluorescent dye labeled protein
Experimental: as §1
Right panels: HER2-negative cells (MDA-MB-231).
as §2

Molecule | effect on spheroids (NIH3T3 cells spheroids) | levels in HER2-positive xenografts compared to HER2-negative tissues (HER2-positive tumor) | enzymatically active (ROS (H2O2) production) | enzymatic activity, production of ROS (H2O2) (ROS (H2O2) production) | binding to HER2-positive cells [1] | binding to HER2-negative cells [2]
CC[C@@]1(O)C(=O)OCc2c1cc1n(c2=O)Cc2cc3ccccc3nc2-1 [camptothecin] | disintegration of spheroids | – | – | – | – | –
zHER2-APIT: APIT fused with the zHER2 affibody, AlexaFluor680 (NIR) labelled for biodistribution | – | Significantly higher levels | – | – | – | –
zHER2:342(K4R/K7A/K27R/K49R/K50A/K58A)-APIT: fusion protein of lysine-deleted zHER2:342 mutant and APIT, SEQ ID NO. 5 | – | – | enzymatically active | 70 U/mg | bind to HER2 positive; also recorded: confirmed | not HER2 negative cells
zHER2:342-APIT: fusion protein of targeting sequence zHER2:342 and APIT, SEQ ID NO. 4 | – | – | remain enzymatically active | 70 U/mg | bind to HER2-positive; also recorded: confirmed | not HER2-negative cells
B1 | – | did not show differences | – | 80 U/mg | – | –
